Biological target: ALB蛋白(天然提取)
Assay: AMC sensor, antibody immobilised at 10 ug/ml, ALB in gradient dilution in PBST

B1: Anti-ALB-2G9mut2 (antibody, mouse IgG1, kappa, V domains shown)
VH: QVQLQQSGAELVRPGSSVKISCKASGYAFSNYWMNWVKQRPGQGLEWIGQIYPGDGDTYYNGRFKGKATITADKSPTTAYMQLSSLTSEDSAVYVCARGVLLGSFDYWGQGTTLTVSS
VL: QIVLTQSPAIMSASPGEKVTMTCSASSSVSYMHWYQQKSGTSPKRWIYDTSKLASGVPVRFSGSGSGTSYSLTIRSMEAEDAATYYCQQWGSNPLTFGAGTKLELKR
For B1, the Kd was 1.85 nM, the koff was 0.00241 s⁻¹ and the kon was 1.3e+06 M⁻¹ s⁻¹.
